Experiment: yeast display, Sf9 membrane polyspecificity reagent, FACS + sequencing; frameworks hold sequencing errors
Procedure, shortened: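 Galactose-induced (36–48 hours) yeast carrying a synthetic nanobody display library were exposed to 10% biotinylated, detergent-solubilized Sf9 membrane reagent at 4 °C for 1 hour. FACS followed streptavidin microbead enrichment, using low and high (top ~1%) gates for expression (anti-HA) and reagent binding (streptavidin). Colony PCR, MiSeq 2 × 250 sequencing and CDR-length filtering followed. Labels for polyreactivity reflect the gate of origin.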

Sequence | polyreactivity (PSR sort gate)
QVQLVESGGGLVQAGGSLRLSCAASGYIFDRYAMGWYRQAPGKERELVATITRRGGSTYYADSVKGRFTISRDNAKNTVYLQMNSLKPEDSAVYYCAKRSPGTYIAMGYWGQGTQVTVSS | high polyreactivity
QVQLVESGGGLVQAGGSLRLSCAASGYIFERNAMGWYRQAPGKERELVAAITDDGDDTYYADSVKGRFTISRDNAKNTVYLQMNSLKPEETAVYYCAKDLYYGDYYYWGQGTQVTVSS | low polyreactivity
QVQLVESGGGLVQAGGSLRLSCAASGYIFFGNAMGWYRQAPGKERELVAAIRGRGTSTYYADSVKGRFTISRDNAKNTVYLQMNSLKPEDTAVYYFDADVVRSNFYGTFMYDYDYWGQGTQVTVSS | low polyreactivity
QVQLVESGGGLVQAGGSLRLSCAASGYIFFNYGMGWYRQAPGKERELVAASTTIDGTTYYADSVKGRFTISRDNAKHTVYLQMNSLKPEDTAVYYCNADLYWLWYGEFDYWGQGTQVTVSS | high polyreactivity
QVQLVESGGGLVQAGGSLRLSCAASGYIFFRYAMGWYRQAPGKERELVAAINSSGDSTYADSVKGRFTISRDNAKNTVYLQMNSLKPEDTAVYYCNKDAPLFHDIIIDMDYWGQGTQVTVSS | low polyreactivity
QVQLVESGGGLVQAGGSLRLSCAASGYIFGLYAMGWYRQAPGKERELVASITGGGSTYADSVKGRFTISRDNAKNTVYLQMISLKPEDTAVYYCAAESTVRPYEHSGDYWGQGTQVTVSS | low polyreactivity
QVQLVESGGGLVQAGGSLRLSCAASGYIFGSYVMGWYRQAPGKERELVAAITRIGASTYFADSVKGRFTISRDNAKNTVYLQMNSLKPDDTAVFYCATDQGGYYENDYWGQGTQVTVSS | low polyreactivity
QVQLVESGGGLVQAGGSLRLSCAASGYIFGSYVMGWYRQAPGKERELVAAITRIGASTYYEDSVKGRFTISRDTAKNTVYIQMNSLKPDDTAVYDCATDQGGYYENDYWGQGTQVTVSS | low polyreactivity
QVQLVESGGGLVQAGGSLRLSCAASGYIFGVYAMGWYRQAPGKERELVAAISIGGSTYYADSVKGPFTISRDNAKNTVYLQMNSLKPEDTAVYYCAARGWIRKTSSAYGYWGQGTQVTVSS | high polyreactivity
QVQLVESGGGLVQAGGSLRLSCAASGYIFGVYAMGWYRQAPGKERELVAVITVTGGSTYYADSVKGRFTISRDNAKNTVYLQMNSLKPEDTAVYYCNTLEYLEYDYWGQGTQVTVSS | high polyreactivity
QVQLVESGGGLVQAGGSLRLSCAASGYIFKSYVMGWYRQAPGKERELVAAISWGGGRTYYADSVKGRFTISRDNAKNTVYLQMNSLKPEDTAVYYCAADTKVGNGIKFDYWGQGTQVTVSS | high polyreactivity
QVQLVESGGGLVQAGGSLRLSCAASGYIFKTYDMGWYRQAPGKETELVAAITASGGSTSYADSVKGRFTISRDNAKNTVYLQMNSLKPEDTAVYYCAAVYVRFKAERGVYLYPYDYWGQGTQVTVSS | high polyreactivity
QVQLVESGGGLVQAGGSLRLSCAASGYIFKWYAMGWYIQAPGKERELVAAITWSGDTTYYADSVKGRFTISRDNAQNTVYLQMNSLKPVDTAVYYCAVERDDQDYVYWGQGTQVTVSS | low polyreactivity
QVQLVESGGGLVQAGGSLRLSCAASGYIFKYYAKGWYRQAPGKERELVAAISWDGTDTYYADSVKGRFTISRDNAKNTVYLQMNSLIPEDTAVYYCNADYDVYGWRNYWGQGTHVTVSS | low polyreactivity
QVQLVESGGGLVQAGGSLRLSCAASGYIFLPYAMGWYRQARGKEREVVAAIRWSGGSTYYADSVKGRFTISRDNAKNTVYLQMNSLKPEDTAVYYCAAYYVARDRRYPKAYSYEYWGQGTQVTVLS | high polyreactivity
QVQLVESGGGLVQAGGSLRLSCAASGYIFLWYAMGWYRQAPGKERELVASISSGSTYYADSVKGRFTISRDNAKNTVYLLMNSLKPEDTAVYYCAAGWFASDYYYWGQGTQVTVSS | low polyreactivity
QVQLVESGGGLVQAGGSLRLSCAASGYIFPKNAMGWYRQAPGKERELVAAITGSGGSTYYADSVKGRFTISRDNAKNTVYLQMNSLKPEDTAVYYCAKRSWIEYDYWGQGTQVTVSS | low polyreactivity
QVQLVESGGGLVQAGGSLRLSCAASGYIFPPNAMGWYRQAPGKDRELVAAIRRSTGSTYYADSVKGRFTISRDNAKNTVYLQMNSLKPEDTAVYYCAAYYGYITFGYTYEYWGQGSQVTVSS | high polyreactivity
QVQLVESGGGLVQAGGSLRLSCAASGYIFPSYAMGWYRQAPGKERELVAVITTRGSTYYADSVKGRFTISRDNAKNTVYLQMNSVKAEETAVYYCAAAPYVYWFFVRPYGDDYWGLGTQVTVSS | high polyreactivity
QVQLVESGGGLVQAGGSLRLSCAASGYIFQKNAMGWYRQAPGKERELVAAISSGTDRTYYADSVKGRFTISRDNAKYTVYLQMNSLKPDDTAVYYCAARYWGGYYYWGQGTQVTVSS | high polyreactivity
QVQLVESGGGLVQAGGSLRLSCAASGYIFRAYAMGWYRQAPGKERELVAAITKRSGTTYYADSVKGRFTISRDNAKNTVYLQMNSLKPEDTAVYYCAAKTLYNSGTQDRAMGYWGQGTQVTVSS | high polyreactivity
QVQLVESGGGLVQAGGSLRLSCAASGYIFRSYAMGWYRQAPGKERELVAAITRSGGSTYYADSVKGRFTISRDNAKNTVYLQMNSPKPEDTAVYYCAVLPRGSNGMDYWGQGTQVTVSS | low polyreactivity

Sequence | polyreactivity (PSR sort gate)
QVQLVESGGGLVQAGGSLRLSCAASGYIFSGYAMGWYRQAPGKEMELVAAISSNGGSTYYADSVKGRFTISRDNAKNTVYLQMNSLKPEDTAVYYCNRGLAARVGRGDYWGQGTQVTVSS | low polyreactivity
QVQLVESGGGLVQAGGSLRLSCAASGYIFSYYAMGWNRPAPGKERELVATISSGGSTNYADSVKGRFTISRDNAKNTVYLQMNSLKPEDTAVYYCAATIGHNGFYYWGQGTLVTVSS | low polyreactivity
QVQLVESGGGLVQAGGSLRLSCAASGYIFTGNAMGWYRQAPGKEREFVAAISWSGGSTYYADSVKGRFTISRDNAKNTVYLQMNSLKPEDTAVYDCNKYRPYGRIYHLAYGRDDWGQGTQVTVSS | high polyreactivity
QVQLVESGGGLVQAGGSLRLSCAASGYIFTGNAMGWYRQAPGKERELVAAISKSGSRTYYADSVKGRFTISRDNAKNTVYLQMNSLKPEDTAVYYCNAYSARDSELDYWGQGTQVTVSS | high polyreactivity
QVQLVESGGGLVQAGGSLRLSCAASGYIFTRNAMGWYRQAPGKERELVAAISRSGGSTYYADSLKGRFTISRDNAKNTVYLQMNSLKPEDTSVYYCAAVDKGRPGRDYWGQGTQVTVSS | low polyreactivity
QVQLVESGGGLVQAGGSLRLSCAASGYIFTSYAMGWYRQAPGKERELVATITTGGSTYYADSVKGRFTISRDNAKNTVYLQMNSLKPEDTAVYYCNAVLHGWYDYWGQGTQVTVSS | low polyreactivity
QVQLVESGGGLVQAGGSLRLSCAASGYIFTVYAMGWYRQAPGKERELVAAINWSDGSTYYADSVKGRFTISRDNAKNTVYLQMNSLKPEDTAVYYCATEYWYGIYGYDYWGQGTQVSVSS | high polyreactivity
QVQLVESGGGLVQAGGSLRLSCAASGYIFTYYAMGWYRQAPGKERELVAAISGSDGNTYYADSVKGRFTISRDNAKNTVYLQMTSLKPEDTAVYYCAKSGGLTFRSQRYDYWGQGTQVTVSS | low polyreactivity
QVQLVESGGGLVQAGGSLRLSCAASGYIFVGNAMGWYRQAPGKERELVATIRSSTGNTYADSVKGRFTISRDNAKNTVYLQMNSLKPEDTAVYYCATVYELPGWGREYGYWGQGTQVTVSS | low polyreactivity
QVQLVESGGGLVQAGGSLRLSCAASGYIFVSNAMGWNRQEPGKERELVAPISGSGGSTYYADSVKGRFTISRDIAKNTVYLQMNSLKPEDTAVYSCAADYATVTWRGIAYDYWGQGTQVTVSS | low polyreactivity
QVQLVESGGGLVQAGGSLRLSCAASGYIFWENAMGWYRQAPGKERELVAAITVSGGGTYYADSVKGRFTISRDNAKNSVYLQMNSLKPEVTAVYYCNVYDKAPAYDYWGQGTQVTVSS | low polyreactivity
QVQLVESGGGLVQAGGSLRLSCAASGYIFYANAMGWYRQPPGKERELVAAISWSGGSTYYADSVKGRFTISRDNAKNTVYLQMNSLKPEDTAVYYCAAAYYETPWDYYYWGQGTQVTVSS | low polyreactivity
QVQLVESGGGLVQAGGSLRLSCAASGYIFYGYVMGWYRQAPGKERELVAGITYSGGGGTHYADSVKGRFTISRDNAKNTVYLQMNSLKPEDNAVYYCAKADPQLNRTYYSYGMDYWGQGTQVTVSS | low polyreactivity
QVQLVESGGGLVQAGGSLRLSCAASGYIFYHNTMGWYRQEPGKERELVAAITIGGRTYYADSVKGRFTISRDNAKNTVYLQMNSLKPEDTAVYYCATASYRNPSDYWGQGTQVSVSS | high polyreactivity
QVQLVESGGGLVQAGGSLRLSCAASGYIFYTYAMGCYRQAPGKERELVAGISGSGGSTYYADSVKGRFTISRDNAKNTVYLQMNSLNPEETAVYYCAKDIYQIGYRRYDSWGQGTQVTVSS | low polyreactivity
QVQLVESGGGLVQAGGSLRLSCAASGYIFYVYAMGWYRQAPGKERELVAAINSGDITYYADSVKGRFTISRDNAKNTVYLQMNSLKPEDTAVYYCATVLILIYDYWGQGTQVTVSS | low polyreactivity
QVQLVESGGGLVQAGGSLRLSCAASGYIFYYYTMGWYRQATGKEREFVAAISYSVGSTYADSVKGRFTISRDNAKNTVYLQMNSLKPEDTAVYYCNAVTIRNVYYSGGYWGQGTQVTVSS | high polyreactivity
QVQLVESGGGLVQAGGSLRLSCAASGYIIGGNAMGWYRQAPGKERELVAVISSRGGRTYYADSVKGRFTISRDNAKNTVYLQMNSLKPEDTAVSYCNRDFSYQYKRDYWGQGTQVTVSS | high polyreactivity
QVQLVESGGGLVQAGGSLRLSCAASGYIITSNAMGWYRQAPGKERELVAAITYSDGSTYYADSVKGRFTISRDNAKNTVYLQMNSLIPEDTAVYYCAVDRDYNVAVLRDLDYWGQGTQVTVSS | low polyreactivity
QVQLVESGGGLVQAGGSLRLSCAASGYISFGYAMGWYRQAPGKEREFVAAISVGGGTTYYADSVKGRFTISRDNAKNTVYLQMNSLKPEDTAVYYCAVGKYNYRGSWDYYWGQGTQVTVSS | high polyreactivity
QVQLVESGGGLVQAGGSLRLSCAASGYIVITYAMGRYRQAPGKERELVAAISRRGGRTYYADSVKGRFTISRDNAKNTVYLQMNSLKPEATAVYYCAADPATSVYGGLNYWGQGTQVTVSS | high polyreactivity

Source: the nanobody polyreactivity screen of Harvey et al. (2022)
